Assay results as given in publication PMC4509546, “Structural Characterization of the Chaetomium thermophilum TREX-2 Complex and its Interaction with the mRNA Nuclear Export Factor Mex67:Mtr2” (Structure(London, England:1993), 2015).
One block for each molecule: values may come before it.

Tests used:
[1] = target: GST-tagged ctMlp1^(1797-1960) (Chaetomium thermophilum); test: SPR; GST-tagged ligands captured by anti-GST antibody on CM5 chip; ctMex67:Mtr2 injected at 0.11-10 μM for 120 s, dissociation 600 s; BIAcore T200, 30 μl/min, 25°C, 20 mM Na-HEPES pH 7.5, 400 mM NaCl, 2 mM MgCl2, 5% glycerol, 0.01% NP-40; double exponential fits
Chain of GST-tagged ctMlp1^(1797-1960) (Chaetomium thermophilum) (G0SA56 1797-1960): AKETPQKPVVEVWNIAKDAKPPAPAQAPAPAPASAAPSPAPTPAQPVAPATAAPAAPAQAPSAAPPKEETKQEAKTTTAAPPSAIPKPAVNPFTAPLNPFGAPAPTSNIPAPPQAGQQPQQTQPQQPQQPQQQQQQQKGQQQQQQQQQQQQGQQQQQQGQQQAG

[2] = target: GST-tagged ctNup145^(213-567) (Chaetomium thermophilum); test: as above
[3] = target: GST-tagged ctSac3N^(1-210) (Chaetomium thermophilum) (UniProt G0SGL4); test: as above
[4] = target: T1, C. thermophilum TREX-2 CID region complex (ctSac3^CID:ctSus1:ctCdc31) (Chaetomium thermophilum, UniProt G0SGL4 1086-1170; G0S6Y1 1-168; G0SAR7 1-177); test: SPR; ctSac3 CID region with the Sac3N FG region; who was immobilised is not told in the text (Figure S2); general SPR conditions: BIAcore T200, 25°C, 20 mM Na-HEPES pH 7.5, 400 mM NaCl, 2 mM MgCl2, 5% glycerol, 0.01% NP-40; conditions: both partners purified
T1 construct: as m1; Sus1, Chaetomium thermophilum, locus CTHT_0027270; as m2; as m3; Used here for the SPR of 'the ctSac3 CID region' with Sac3N; also called ctSac3 CID region; CID region of TREX-2; source: E. coli, co-expressed, purified (GSH, TEV cleavage, size-exclusion chromatography); copies: 1 + 1 + 1
T1 sequence 1: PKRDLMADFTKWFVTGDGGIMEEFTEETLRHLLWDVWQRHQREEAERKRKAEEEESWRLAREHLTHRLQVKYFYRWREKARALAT
T1 sequence 2: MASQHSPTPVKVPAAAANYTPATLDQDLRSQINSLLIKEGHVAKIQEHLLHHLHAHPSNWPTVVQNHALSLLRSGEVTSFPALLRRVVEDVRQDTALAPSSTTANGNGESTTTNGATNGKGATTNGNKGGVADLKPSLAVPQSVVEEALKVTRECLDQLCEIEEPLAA
T1 sequence 3: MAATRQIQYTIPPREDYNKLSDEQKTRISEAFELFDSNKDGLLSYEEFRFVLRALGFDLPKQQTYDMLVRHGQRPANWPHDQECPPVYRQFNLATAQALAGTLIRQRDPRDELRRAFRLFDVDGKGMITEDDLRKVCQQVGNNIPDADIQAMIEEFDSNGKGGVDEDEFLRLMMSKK

KD1 [1]: 309 nM
KD2 [1]: 419 nM
koff1 [1]: 0.071 s⁻¹
koff2 [1]: 0.0088 s⁻¹
kon1 [1]: 230000 M⁻¹ s⁻¹
kon2 [1]: 21000 M⁻¹ s⁻¹
KD1 [2]: 238 nM
KD2 [2]: 264 nM
koff1 [2]: 0.071 s⁻¹
koff2 [2]: 0.0074 s⁻¹
kon1 [2]: 300000 M⁻¹ s⁻¹
kon2 [2]: 28000 M⁻¹ s⁻¹
KD1 [3]: 39 nM
KD2 [3]: 148 nM
koff1 [3]: 0.073 s⁻¹
koff2 [3]: 0.0049 s⁻¹
kon1 [3]: 1.9e+06 M⁻¹ s⁻¹
kon2 [3]: 33000 M⁻¹ s⁻¹
Molecule: ctMex67:Mtr2 complex

Kd [4]: 2200 nM
koff [4]: 0.00052 s⁻¹
kon [4]: 235 M⁻¹ s⁻¹
B1: GST-tagged ctSac3N^(1-210) (domain or fragment, Chaetomium thermophilum, UniProt G0SGL4 1-210, looked up)
chain: MMAPANNPFGAPPAQVNNPFASPAPSNQGSSVFGAPAQSTFGAPSSNNPFGASSAKPSGAPAANPFGAPIKNPFGASAQNAQNKPFGAPTAGNGSSLAAANPFGAASGQTSAFGSTPAGSAPQSKGSSRQPSPAGRQNQSGRQQANLVGAPQGPSGKKRTPSPFDTRQRTQAPSKRAQASEESDSDAMSGRKSKGKGFGGLKSQPPAANK
notes: also called GST-Sac3N; GST-Sac3; source: E. coli (general method), captured on an anti-GST antibody-coated CM5 chip
